Laboratory results reported in the supplement of paper PMC9112550, “Optimization of the antimicrobial peptide Bac7 by deep mutational scanning” (BMC Biology, 2022).

tested on: Escherichia coli TOP10; test: shrunken log2 fold change of peptide-encoding DNA abundance (4.5 h post-induction vs induction); higher = less antimicrobial activity (less host growth inhibition); conditions: time post-induction: 4.5 h; library: site-saturation at positions 5, 18, 19, 20
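Note: peptides expressed intracellularly from a pBAD plasmid library in pooled LB shake-flask culture, induced with 0.3% L-arabinose, DNA abundance read by NGS, three biological replicates, DESeq2 with apeglm shrinkage.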

| Sequence | shrunken log2 fold change |
| --- | --- |
| RRIRGRPPRLPRPRPRPIGAPRP | 0.251 |
| RRIRGRPPRLPRPRPRPIHIPRP | 0.304 |
| RRIRGRPPRLPRPRPRPIHRPRP | 0.0525 |
| RRIRGRPPRLPRPRPRPIHWPRP | 0.306 |
| RRIRGRPPRLPRPRPRPIKCPRP | -0.0104 |
| RRIRGRPPRLPRPRPRPIKLPRP | 0.125 |
| RRIRGRPPRLPRPRPRPIKPPRP | -0.0362 |
| RRIRGRPPRLPRPRPRPINGPRP | 0.1 |
| RRIRGRPPRLPRPRPRPINSPRP | 0.134 |
| RRIRGRPPRLPRPRPRPIPEPRP | 0.462 |
| RRIRGRPPRLPRPRPRPIPSPRP | 0.485 |
| RRIRGRPPRLPRPRPRPIPVPRP | 0.0104 |
| RRIRGRPPRLPRPRPRPIRAPRP | 0.602 |
| RRIRGRPPRLPRPRPRPISIPRP | 0.199 |
| RRIRGRPPRLPRPRPRPITCPRP | -0.00623 |
| RRIRGRPPRLPRPRPRPITLPRP | 0.217 |
| RRIRGRPPRLPRPRPRPIVEPRP | 0.194 |
| RRIRGRPPRLPRPRPRPIYAPRP | 0.14 |
| RRIRGRPPRLPRPRPRPIYPPRP | 0.119 |
| RRIRGRPPRLPRPRPRPIYRPRP | 0.2 |
| RRIRGRPPRLPRPRPRPIYSPRP | -0.05 |
| RRIRGRPPRLPRPRPRPKCHPRP | 0.78 |
| RRIRGRPPRLPRPRPRPKDMPRP | 0.213 |
| RRIRGRPPRLPRPRPRPKDPPRP | 0.517 |
| RRIRGRPPRLPRPRPRPKDRPRP | 0.89 |

| Sequence | shrunken log2 fold change |
| --- | --- |
| RRIRGRPPRLPRPRPRPKEHPRP | 0.627 |
| RRIRGRPPRLPRPRPRPKGIPRP | 0.529 |
| RRIRGRPPRLPRPRPRPKGYPRP | 0.214 |
| RRIRGRPPRLPRPRPRPKHLPRP | 0.0257 |
| RRIRGRPPRLPRPRPRPKHRPRP | 0.449 |
| RRIRGRPPRLPRPRPRPKHTPRP | 0.743 |
| RRIRGRPPRLPRPRPRPKIHPRP | 0.373 |
| RRIRGRPPRLPRPRPRPKIPPRP | 0.0163 |
| RRIRGRPPRLPRPRPRPKLIPRP | 0.479 |
| RRIRGRPPRLPRPRPRPKMGPRP | 1.21 |
| RRIRGRPPRLPRPRPRPKNSPRP | 0.252 |
| RRIRGRPPRLPRPRPRPKPHPRP | 0.854 |
| RRIRGRPPRLPRPRPRPKPNPRP | 1.05 |
| RRIRGRPPRLPRPRPRPKRCPRP | 0.788 |
| RRIRGRPPRLPRPRPRPKRGPRP | 0.919 |
| RRIRGRPPRLPRPRPRPKRTPRP | 1.01 |
| RRIRGRPPRLPRPRPRPKTFPRP | 0.292 |
| RRIRGRPPRLPRPRPRPKTIPRP | 0.445 |
| RRIRGRPPRLPRPRPRPKTWPRP | 0.155 |
| RRIRGRPPRLPRPRPRPKYRPRP | 0.000233 |
| RRIRGRPPRLPRPRPRPLEDPRP | 0.205 |
| RRIRGRPPRLPRPRPRPLEPPRP | 0.231 |
| RRIRGRPPRLPRPRPRPLEQPRP | 0.435 |
| RRIRGRPPRLPRPRPRPLFEPRP | 0.739 |
| RRIRGRPPRLPRPRPRPLFNPRP | 0.117 |

| Sequence | shrunken log2 fold change |
| --- | --- |
| RRIRGRPPRLPRPRPRPLFRPRP | 0.444 |
| RRIRGRPPRLPRPRPRPLGGPRP | 0.615 |
| RRIRGRPPRLPRPRPRPLGIPRP | 0.178 |
| RRIRGRPPRLPRPRPRPLHKPRP | 0.714 |
| RRIRGRPPRLPRPRPRPLHYPRP | -0.0826 |
| RRIRGRPPRLPRPRPRPLIRPRP | 0.0808 |
| RRIRGRPPRLPRPRPRPLIYPRP | 0.105 |
| RRIRGRPPRLPRPRPRPLKMPRP | 0.27 |
| RRIRGRPPRLPRPRPRPLKNPRP | 0.459 |
| RRIRGRPPRLPRPRPRPLKTPRP | 0.58 |
| RRIRGRPPRLPRPRPRPLLDPRP | 2.07 |
| RRIRGRPPRLPRPRPRPLMFPRP | 0.603 |
| RRIRGRPPRLPRPRPRPLMWPRP | 0.4 |
| RRIRGRPPRLPRPRPRPLNAPRP | 0.908 |
| RRIRGRPPRLPRPRPRPLPNPRP | 0.781 |
| RRIRGRPPRLPRPRPRPLQQPRP | 0.28 |
| RRIRGRPPRLPRPRPRPLRFPRP | 0.917 |
| RRIRGRPPRLPRPRPRPLRMPRP | 0.848 |
| RRIRGRPPRLPRPRPRPLSIPRP | 0.363 |
| RRIRGRPPRLPRPRPRPLSSPRP | 0.598 |
| RRIRGRPPRLPRPRPRPLTSPRP | 0.167 |
| RRIRGRPPRLPRPRPRPLVCPRP | 0.584 |
| RRIRGRPPRLPRPRPRPLYFPRP | -0.131 |
| RRIRGRPPRLPRPRPRPMCIPRP | 0.166 |
| RRIRGRPPRLPRPRPRPMDDPRP | 0.994 |
